Article PMC9646764 (2022)

B1: TcdB4.2_(1286-1805) (domain or fragment)
chain: TNIRISLDSNTRSFIVPVITTEYIREKLSYSFYGSGGTYALSLSQYNMNINIELNENDTWVIDVDNVVRDVTIESDKIKKGDLIENILSKLSIEDNKIILDNHEINFSGTLNGGNGFVSLTFSILEGINAVIEVDLLSKSYKVLISGELKTLMANSNSVQQKIDYIGLNSELQKNIPYSFMDDEGKENGFINCFTKEGLFVSELSDVVLIIKVYMDNSKPPFGYYSNDLKDVKVITKDDVIIITGYYLKDDIKISLSFTIQDKNTIKLNGVYLDENGVAEILKFMNKKGSTNTSDSLMSFLESMNIKSIFIKSLKSNAKLILDTNFIISGTTFIGQFEFICDKDNNIQPYFIKFNTLETKYTLYVGNRQNMIVEPNYNLDDSGDISSTVINFSQKYLYGIDSCVNKVVISPGIYTDEINITPVHEANNTYPEVIVLDTNYISEKINININDLSIRYVWSNDGSDFILMSTDEENKVSQVKIRFTNVFKGNTISDKISFNFSDKQDISINKIISTFTPSYY
B2: mTFPI-Fc (Fc-tagged mouse TFPI) (Fc fusion)
chain: LSEEADDTDSELGSMKPLHTFCAMKADDGPCKAMIRSYFFNMYTHQCEEFIYGGCEGNENRFDTLEECKKTCIPGYEKTAVKAASGAERPDFCFLEEDPGLCRGYMKRYLYNNQTKQCERFVYGGCLGNRNNFETLDECKKICENPVHSPSPVNEVQMSDYVTDGNTVTDRSTVNNIVVPQSPKVPRRR
B3: Chicken TFPI-Fc (Fc fusion)
chain: TDDSDGEEEDVLGVPLPPLKLGHSDCALKADEGPCKAIHVRFYFNIQSRECEIFEYGGCHGNANNFLTLEECQNKCVVTELPLEVMLAKNEREKPNFCYQEKDPGICRGFFSRYFYNKETKICEIFKYGGCLGNQNNFKSLEECQTTCQGNPNLLSVAPDEEHPNHMNSSSPEEERNQFPGIVE

Experiments:
Assay in all cases: BLI
Chicken TFPI-Fc [1] = target: B3
Chicken TFPI-Fc [2] = target: B3
[3] = target: B2
[4] = target: TFPI-Fc (human IgG-Fc-tagged TFPI without the GPI anchor) (human, UniProt P10646 29-209)
TcdB10.1_(1285-1804) = TcdB10.1_(1285-1804) ( | Clostridioides difficile)

TFPI-Fc (human IgG-Fc-tagged TFPI without the GPI anchor), sequence (P10646 29-209): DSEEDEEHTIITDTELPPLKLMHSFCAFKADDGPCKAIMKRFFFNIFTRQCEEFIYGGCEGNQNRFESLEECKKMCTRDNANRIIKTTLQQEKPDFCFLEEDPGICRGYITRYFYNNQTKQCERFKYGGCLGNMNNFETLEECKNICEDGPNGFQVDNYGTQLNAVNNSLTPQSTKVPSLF

Binder: B1
- Kd (Chicken TFPI-Fc [1]): 336 nM
- koff (Chicken TFPI-Fc [2]): 0.00885 s⁻¹
- koff [3]: 0.00344 s⁻¹
- koff [4]: 0.00708 s⁻¹

Binder: B2
- Kd (TcdB10.1_(1285-1804)): 465 nM
- koff (TcdB10.1_(1285-1804)): 0.00637 s⁻¹

Binder: B3
- Kd (TcdB10.1_(1285-1804)): 70.5 nM
- koff (TcdB10.1_(1285-1804)): 0.006 s⁻¹
